Assay results published in publication PMC10315472.

Tests used:
Assay in all cases: SPR
[1] = molecular target: wild-type SARS-CoV-2 Spike receptor-binding domain (SARS-CoV-2) (UniProt P0DTC2)
AMSIN (actinomyces) = molecular target: AMSIN (actinomyces)
[2] = molecular target: emorisin (Emergomyces orientalis)

Substance	Kd [1] [nM]	Kd (AMSIN (actinomyces)) [nM]	Kd [2] [nM]
(ΔGFG)AMSIN (peptide)	119		
wild-type SARS-CoV-2 Spike receptor-binding domain (from UniProt P0DTC2 319-527) (domain or fragment)		193	7.6
